# Results from PMC12003327.
# Legend:
# [1] = target: recombinant human integrin alphaV beta3 (αvβ3) (human) (UniProt P06756)
# [2] = target: recombinant human integrin alphaV beta3 (αvβ3) (human) (UniProt P06756); remark: listed apart in the source
# [3] = target: recombinant human integrin alphaV beta3 (αvβ3) (human) (UniProt P06756); remark: listed apart in the source
substance,measurement,setting,value
recombinant trimeric SARS-CoV-2 Omicron BA.1 spike protein (from UniProt P0DTC2 14-1273) (natural protein),"phosphorylation of FAK in HL-mECs 1 h after infection with authentic Omicron BA.1 (western blot, against not infected cells) (fold increase)",[1],2.3
same,"phosphorylation of Src in HL-mECs 1 h after infection with authentic Omicron BA.1 (western blot, against not infected cells) (fold increase)",[1],1.8
same,inhibition of FAK activation by Omicron BA.1 in HL-mECs pretreated with Heparinase III,[2],48%
same,inhibition of FAK activation by Omicron BA.1 in HL-mECs pretreated with mAb anti-αvβ3,[2],54%
same,inhibition of FAK activation by Omicron BA.1 in HL-mECs pretreated with sodium chlorate,[2],48%
same,inhibition of pSrc activation by Omicron BA.1 in HL-mECs pretreated with Heparinase III,[2],66%
same,inhibition of pSrc activation by Omicron BA.1 in HL-mECs pretreated with mAb anti-αvβ3,[2],56%
same,inhibition of pSrc activation by Omicron BA.1 in HL-mECs pretreated with sodium chlorate,[2],65%
same,"ERK phosphorylation in HL-mECs after infection with authentic Omicron BA.1 (western blot, against not infected cells) (fold increase)",[3],3.5
same,inhibition of Omicron BA.1-induced ERK activation in HL-mECs pretreated with Heparinase III,[3],56%
same,inhibition of Omicron BA.1-induced ERK activation in HL-mECs pretreated with mAb anti-αvβ3,[3],44%
same,inhibition of Omicron BA.1-induced ERK phosphorylation in HL-mECs pretreated with sodium chlorate,[3],53%
